In article PMC4422728:

Biological target: β-amyloid (Aβ) protein from brains of rTg9191 mice (human)
Assay: SDS-PAGE and Western blot under denaturing conditions; water-soluble fraction of brain extracts (three-step protocol); samples heated at 95°C with SDS and β-mercaptoethanol, 10-20% Tris-Tricine gels, immunoblot for Aβ; mice of 4, 12, 21, 24 and 26 months

- stoichiometry N: 2
Substance: β-amyloid (Aβ) protein from brains of rTg9191 mice (peptide)
